Assay results reported in publication PMC2654577.
Where two headings read alike, the source gives them in different places.

Columns and labels:
Assay in all cases: enzyme inhibition kinetics
[1] = biological target: factor XIa catalytic domain R171A (human) (UniProt P03951)
[2] = biological target: factor XIa catalytic domain K179A (human)
[3] = biological target: full-length factor XIa autolysis loop variant fXIa-144-149A (human)
[4] = biological target: factor XIa catalytic domain K175A (human)
[5] = biological target: full-length factor XIa with a Gln substitution for Arg-37 (human)
[6] = biological target: factor XIa catalytic domain K170A (human) (UniProt P03951)
[7] = biological target: factor XIa catalytic domain R173A (human) (UniProt P03951)
[8] = biological target: factor XIa catalytic domain R171A (human) (UniProt P03951); remark: listed apart in the source
[9] = biological target: factor XIa catalytic domain K179A (human); remark: listed apart in the source
[10] = biological target: factor XIa catalytic domain K175A (human); remark: listed apart in the source
[11] = biological target: wild type recombinant factor XIa, full length (human)
[12] = biological target: factor XIa catalytic domain K170A (human) (UniProt P03951); remark: listed apart in the source
[13] = biological target: factor XIa catalytic domain R171A (human) (UniProt P03951); remark: listed apart in the source
[14] = biological target: factor XIa catalytic domain K179A (human); remark: listed apart in the source
[15] = biological target: factor XIa catalytic domain K175A (human); remark: listed apart in the source
[16] = biological target: full-length factor XIa with a Gln substitution for Arg-37 (human); remark: listed apart in the source
[17] = biological target: factor XIa catalytic domain K170A (human) (UniProt P03951); remark: listed apart in the source
[18] = biological target: factor XIa catalytic domain R173A (human) (UniProt P03951); remark: listed apart in the source

Substance: antithrombin (from UniProt P01008 33-464) (natural protein)
- k2 (second-order inhibition rate constant) [1]: 490 M⁻¹ s⁻¹
- k2 (second-order inhibition rate constant) [2]: 250 M⁻¹ s⁻¹
- k2 (second-order inhibition rate constant), maximal [3]: 200000 M⁻¹ s⁻¹
- k2 (second-order inhibition rate constant) [4]: 180 M⁻¹ s⁻¹
- k2 (second-order inhibition rate constant) [5]: 1550 M⁻¹ s⁻¹
- k2 (second-order inhibition rate constant) [6]: 230 M⁻¹ s⁻¹
- k2 (second-order inhibition rate constant) [7]: 210 M⁻¹ s⁻¹
- k2 (second-order inhibition rate constant) [8]: 18000 M⁻¹ s⁻¹
- k2 (second-order inhibition rate constant) [9]: 50000 M⁻¹ s⁻¹
- k2 (second-order inhibition rate constant) [10]: 17000 M⁻¹ s⁻¹
- k2 (second-order inhibition rate constant) [11]: 223000 M⁻¹ s⁻¹
- k2 (second-order inhibition rate constant) [12]: 12000 M⁻¹ s⁻¹
- k2 (second-order inhibition rate constant) [13]: 1200 M⁻¹ s⁻¹
- k2 (second-order inhibition rate constant) [14]: 680 M⁻¹ s⁻¹
- k2 (second-order inhibition rate constant) [15]: 550 M⁻¹ s⁻¹
- k2 (second-order inhibition rate constant) [16]: 2620 M⁻¹ s⁻¹
- k2 (second-order inhibition rate constant) [17]: 610 M⁻¹ s⁻¹
- k2 (second-order inhibition rate constant) [18]: 560 M⁻¹ s⁻¹
